Source: patent US8853165B2, “Peptide having the ability to regenerate bone tissue and for binding to apatite” (Nano Intelligent Biomedical Engineering Corporation Co., …, priority 2010, dated 2014)
Values joined by “and” are separate entries in the source; they are usually repeats but may differ in a detail not shown here. Identical values can stand only once. Residues, ends and D or L forms follow the SMILES beside them. *: point of attachment. FITC = O=C1OC2(c3ccc(O)cc3Oc3cc(O)ccc32)c2ccc(NC(=S)*)cc21

Experiments:
[1] = Peptide release (elution) test from bone graft material in PBS at 37° C., HPLC; format: physicochemical, bovine; settings: for Release of Peptide from Bone Mineral: PBS, 37° C., Lot Nos. 1-3
Protocol: 1200 mg of the peptide prepared in Example 1 was dissolved in 1 mL of tertiary distilled water, and then 4 g of bovine bone mineral (OCS-B, NIBEC) was added thereto, followed by deposition for 24 hours and then freeze-drying.
4 g of a bone graft material with a binding peptide was input to 20 mL of PBS, and then the peptide release test was conducted at 37° C. After 7 days, 20 Ml of elution solvent that was initially introduced was completely removed, and then 20 Ml of new elution solvent was again added to proceed elution at 37° C. In the above manner, the peptide elution test was conducted for 14 days, 28 days, 56 days, 84 days, and 100 days. After completion of elution, the bone graft material was collected and the peptide content was measured.
3 g of the bone graft material with a binding peptide was precisely weighed, and then made into powder. About 2 g of the powder corresponding to 160 mg of peptide was precisely weighed, which was then input to 40 mL of Solution A as mobile phase, followed by sonication for 1 hour. After that, extraction was conducted while stirring at 37±2° C. for 24 hours, and then the upper layer of the extracted solvent was separated by centrifuging at 3000 rpm for 10 minutes and then filtration with a 0.22 μm millipore filter. 1 mL thereof was taken therefrom, and mixed with 3 mL of Solution A, which was then filtered through a 0.22 μm millipore filter, then the filtrate was used as the test liquid.
The peptide standard product was dried in the desiccator (silica gel) for 5 hours, and then 10 mg thereof was precisely weighed, which was then dissolved by the addition of Solution A as a mobile phase, and then exactly 10 mL thereof was used as a standard liquid.
The test liquid and the standard liquid each 10 μl were tested under the following operating conditions for liquid chromatography, to obtain test liquid and standard liquid peak areas, AT and AS. Amount of peptide (mg)=amount of peptide standard product (mg)×
Meter: Analytical HPLC (Shimadzu, Japan)
Column: Filled with C18-bonded silica gel with 5 μm size (length: […], inner diameter: 4.6 mm)
Mobile phase: 0.1% trifluoroacetic acid/DDW (Solution A) 0.098% trifluoroacetic acid/acetonitrile (Solution B)
Detector: UV absorption spectrometer (measurement wavelength: 230 nm)
Column temperature: Constant at approximately 40° C.

rabbit calvarial defect [2] = assay: In vivo bone regeneration capacity of peptide-bound bone graft material in calvarial defect; design: species or system rabbit (NewZealand white rabbit); settings: peptide bound to bone graft material, 50 mg per 8 mm defect, 2 weeks after graft, histology
Excerpt: Each of the peptides of SEQ ID NO: 35, SEQ ID NO: 36, and SEQ ID NO: 40, prepared in Example 1, was allowed to bind to a bone graft material by the same method as Example 2, which was then grafted into the rabbit calvarial defect. The bone regeneration capacity thereof was confirmed. An 8 mm-diameter circular bone defect was formed in the calvarial region of the anesthetized rabbit (NewZealand white rabbit, specific name: cuniculus). The bone graft material and the peptide-containing bone graft material were grafted into the bone defect with 50 mg for each defect, and the periosteum and skin were doubly sutured. The animal was sacrificed 2 weeks after the graft, and the taken sample was fixed in the formaline solution. The tissue was subjected to embedding to prepare a 20 μm-thick specimen. The prepared specimen was stained with basic fuchsin and toluidine blue to produce a nondemineralized sample. The thus produced sample was observed by an optical microscope, and photographed.

rabbit calvarial defect [3] = assay: In vivo stability of FITC-labeled peptide on bone mineral grafted into calvarial defect (confocal microscope, blood fluorometer); settings: 10 mg and 20 mg bone mineral grafted, blood before and 1, 3, 7, 14, 21, 28 days after graft
Protocol: In order to test in vivo stability, 10 equivalents of fluorescein isothiocyanate (FITC) was allowed to bind to the N-terminus by using triethylamine (1 ml per 1 g of resin) at the time of preparing the peptide of SEQ ID NO: 40. The peptide synthesis was confirmed by measuring the molecular weight thereof through MALDI-TOF.
The peptide of SEQ ID NO: 40, labeled with FITC, was precipitated in the bovine bone mineral (OCS-B, NIBEC). The resultant bone mineral was grafted into the rabbit calvarial defect, and then scarified after 4 weeks. After that, the bone mineral grafted into the calvarial defect was observed by using a confocal microscope (Olympus, Japan). The bone mineral with a binding peptide of SEQ ID NO: 40, labeled with FITC, in 10 mg and 20 mg was grafted into the rabbit calvarial defect. The blood was taken before the graft and 1 day, 3 days, 7 days, 14 days, 21 days, and 28 days after the graft, and then it was determined by using the Fluorometer whether or not the peptide was freed into the systemic blood.

NH2-STLPIPHEFSRE-YGLRSKSKKFRRPDIQYPDAT-COONH2 (H-STLPIPHEFSREYGLRSKSKKFRRPDIQYPDAT-NH2) [SEQ ID NO: 40]
Content of Peptide Remaining in Bone Mineral ([1]; after ending the 100 day elution, Lot Nos. 1, 2, 3): 9.2 mg and 9.18 mg and 9.78 mg and 9.19 mg
Release of Peptide from Bone Mineral ([1]; day 7): 0 mg
Release of Peptide from Bone Mineral ([1]; day 14): 0 mg
Release of Peptide from Bone Mineral ([1]; day 28): 0 mg
Release of Peptide from Bone Mineral ([1]; day 56): 0 mg
Release of Peptide from Bone Mineral ([1]; day 84): 0 mg
Release of Peptide from Bone Mineral ([1]; day 100): 0 mg
peak of the peptide in the elution liquid ([1]; elution test for 100 days, Lot No. 1, 2 and 3, retention time 14.196 min): not observed
bone regeneration effect (rabbit calvarial defect [2]): remarkably increased bone regeneration capacity as compared with A and B

YGLRSKSKKFRRPDIQYPDAT (partial peptide of bone sialoprotein) [SEQ ID NO: 35]
bone regeneration effect (rabbit calvarial defect [2]): increased bone regeneration effect as compared with A

CC[C@H](C)[C@H](NC(=O)[C@H](CC(=O)O)NC(=O)[C@@H]1CCCN1C(=O)[C@H](CCCNC(=N)N)NC(=O)[C@H](CCCNC(=N)N)NC(=O)[C@H](Cc1ccccc1)NC(=O)[C@H](CCCCN)NC(=O)[C@H](CCCCN)NC(=O)[C@H](CO)NC(=O)[C@H](CCCCN)NC(=O)[C@H](CO)NC(=O)[C@H](CCCNC(=N)N)NC(=O)[C@H](CC(C)C)NC(=O)CNC(=O)[C@H](Cc1ccc(O)cc1)NC(=O)[C@H](CCC(=O)O)NC(=O)[C@H](CCCNC(=N)N)NC(=O)[C@H](CO)NC(=O)[C@H](Cc1ccccc1)NC(=O)[C@H](CCC(=O)O)NC(=O)[C@H](Cc1c[nH]cn1)NC(=O)[C@@H]1CCCN1C(=O)[C@@H](NC(=O)[C@@H]1CCCN1C(=O)[C@H](CC(C)C)NC(=O)[C@@H](NC(=O)[C@H](CO)NC(=S)Nc1ccc2c(c1)C(=O)OC21c2ccc(O)cc2Oc2cc(O)ccc21)[C@@H](C)O)[C@@H](C)CC)C(=O)N[C@@H](CCC(N)=O)C(=O)N[C@@H](Cc1ccc(O)cc1)C(=O)N1CCC[C@H]1C(=O)N[C@@H](CC(=O)O)C(=O)N[C@@H](C)C(=O)N[C@H](C(N)=O)[C@@H](C)O [SEQ ID NO: 40, labeled with FITC] ({FITC}-STLPIPHEFSREYGLRSKSKKFRRPDIQYPDAT-NH2)
RFI values of blood (peptide freed into systemic blood) (rabbit calvarial defect [3]): no differences as compared with the values before the graft

STLPIPHEFSRE (apatite binding peptide) [SEQ ID NO: 36]
bone regeneration effect (rabbit calvarial defect [2]): smallest
